For two molecules, STET signal results are on record in paper PMC4091638.

This assay deals with T1, Mmm1-SOG (miniSOG fused to the cytosolic face of Mmm1) (S. cerevisiae), P41800.
T1 chain: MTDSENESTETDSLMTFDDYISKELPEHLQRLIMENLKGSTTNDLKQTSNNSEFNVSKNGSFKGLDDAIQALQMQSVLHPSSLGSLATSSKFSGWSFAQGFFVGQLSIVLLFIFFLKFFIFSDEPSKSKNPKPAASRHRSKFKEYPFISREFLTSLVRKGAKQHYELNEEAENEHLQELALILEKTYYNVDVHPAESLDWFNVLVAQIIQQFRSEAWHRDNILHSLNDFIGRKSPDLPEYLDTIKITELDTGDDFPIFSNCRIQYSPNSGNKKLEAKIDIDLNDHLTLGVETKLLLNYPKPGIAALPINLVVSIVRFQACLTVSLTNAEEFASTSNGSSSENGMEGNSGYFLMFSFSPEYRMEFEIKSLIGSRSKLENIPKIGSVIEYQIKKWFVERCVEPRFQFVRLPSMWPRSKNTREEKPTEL
Description: singlet oxygen triplet energy transfer. Conditions: remark: other sources report otherwise.

B1: Mdm34-SOS (IFP1.4 fused to the cytosolic face of Mdm34), P53083 1-459 (natural protein)
chain: MSFRFNEAVFGDNSFNERIREKLSTALNSPSKKKLDILKSGIKVQKVDFPTIPQLEILDLDIITQPKSLAKGICKISCKDAMLRIQTVIESNLLLINEQDTPSFTMPQLINNGSFTIPITMTFSSIELEAITNIFVKNPGIGISFNDVDLDFKFDCSVKILQSTIERRLKESMHVVFKDVLPSLIFNTSQNWFTNRGESTSTIPGKREHHHQQTTMSRNVILDGSDFQELSPINMLRLSSIVSSRSTLSLHSTVMNSLSAIPGCLERQNLYRFISRMPSLNNYYSSQSFPQPKSSTVSSKQLVKPFYCSHNLLPKTVLDSSQYDLATITKIQSRLFDRSNSNDDNAKPRRRKIKCKKTRTPSNLQSQGEQAVDDSTAIETVTSTPVQTPIPELEEQSPPYLKTTVSIRDKYVIPEKISLNLDSKKDTSKKKPFYFIGLNSQEPSNNWKWGMEDSPPPYH
In the case of B1, the STET signal is 0.082 s⁻¹.

B2: SOS-Mdm34 (IFP1.4 fused to the N-terminus of Mdm34, facing the intermembrane space), P53083 1-459 (natural protein)
chain: B1 chain
B2 displayed an STET signal of 0.052 s⁻¹.
